This note sets out measurements from patent US20130174288A1 (PIERRE FABRE MEDICAMENT, published 2013).

Common to all, as to assay: cell-based or functional assay
The target of assay [1] is CXCR4 homodimer BRET pair [CXCR4/Rluc+CXCR4/YFP] on HEK293 cells (Renilla reniformis, UniProt P61073 1-352; P61073 1-352).
In assay [2] the target is T1, human CXCR4 (hCXCR4), expressed on cells (human, UniProt P61073 1-352).
In assay [3] the target is T1, human CXCR4 (hCXCR4), expressed on cells. The source holds these as a separate data set.
Assay [4] concerns the target CCR5 on GHOST cells expressing CD4 and CCR5 (UniProt P51681 1-352, limits assumed).
In assay [5] the target is T1, human CXCR4 (hCXCR4), expressed on cells. The source holds these as a separate data set.

Chain of CXCR4 homodimer BRET pair [CXCR4/Rluc+CXCR4/YFP] on HEK293 cells (P61073 whole entry, chain 1 of 2): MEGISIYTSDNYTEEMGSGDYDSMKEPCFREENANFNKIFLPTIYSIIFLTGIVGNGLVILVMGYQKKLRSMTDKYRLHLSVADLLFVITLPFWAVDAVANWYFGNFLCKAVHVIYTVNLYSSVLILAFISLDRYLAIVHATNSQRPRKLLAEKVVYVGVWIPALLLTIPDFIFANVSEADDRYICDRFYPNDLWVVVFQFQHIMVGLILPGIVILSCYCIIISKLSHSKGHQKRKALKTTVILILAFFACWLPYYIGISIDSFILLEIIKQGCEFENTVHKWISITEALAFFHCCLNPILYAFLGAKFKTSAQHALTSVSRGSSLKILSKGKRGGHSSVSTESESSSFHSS
Chain of CXCR4 homodimer BRET pair [CXCR4/Rluc+CXCR4/YFP] on HEK293 cells (P61073 whole entry, chain 2 of 2): as the sequence (P61073 whole entry, chain 1 of 2) above
T1 sequence (P61073 whole entry): as the sequence (P61073 whole entry, chain 1 of 2) above
Chain of CCR5 on GHOST cells expressing CD4 and CCR5 (P51681 whole entry): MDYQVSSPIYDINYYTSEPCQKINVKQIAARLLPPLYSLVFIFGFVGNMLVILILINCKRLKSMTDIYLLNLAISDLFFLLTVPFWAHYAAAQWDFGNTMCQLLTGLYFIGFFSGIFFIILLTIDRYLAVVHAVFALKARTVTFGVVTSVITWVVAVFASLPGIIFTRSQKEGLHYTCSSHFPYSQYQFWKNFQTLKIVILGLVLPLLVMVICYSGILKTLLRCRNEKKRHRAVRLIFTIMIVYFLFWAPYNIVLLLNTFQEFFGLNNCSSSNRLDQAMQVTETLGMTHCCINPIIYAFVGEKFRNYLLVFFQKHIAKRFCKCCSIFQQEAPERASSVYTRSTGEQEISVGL

B1: anti-CXCR4 chimeric Mab c515H7 (antibody, V domains shown)
VH: EVNLVESGGGLVQPGGSLRLSCATSGFTFTDNYMSWVRQPPGKALEWLGFIRNKANGYTTDYSASVRGRFTISRDNSQSILYLQMNALRAEDSATYYCARDVGSNYFDYWGQGTTLTVSS
VL: DIVMSQSPSSLAVSAGEKVTMSCKSSQSLFNSRTRKNYLAWYQQKPGQSPKLLIYWASARDSGVPARFTGSGSETYFTLTISRVQAEDLAVYYCMQSFNLRTFGGGTKLEIK
As for B1, the “% inhibition of SDF-1-induced BRET increase” value in assay [1] came out at 96%. In addition, in assay [2], the “IC50 (µg/ml), % inhibition of infected cells, HIV-1 92UG024 replication in human PBMC” value is less than 1.5 µg/mL; the “IC50 (µg/ml), % inhibition of infected cells, HIV-1 KON replication in human PBMC” value is 1.5 µg/mL; the “IC50 (µg/ml), % inhibition of infected cells, HIV-1 MN replication in human PBMC” value was less than 1.5 µg/mL; the “IC80 (µg/ml), % inhibition of infected cells, HIV-1 92UG024 replication in human PBMC” value turned out to be 3 µg/mL. For the same molecule, in assay [2], the “IC80 (µg/ml), % inhibition of infected cells, HIV-1 KON replication in human PBMC” value was 10 µg/mL; the “IC80 (µg/ml), % inhibition of infected cells, HIV-1 MN replication in human PBMC” value was 1 µg/mL; the “IC90 (µg/ml), % inhibition of infected cells, HIV-1 92UG024 replication in human PBMC” value was determined as 15 µg/mL; the “IC90 (µg/ml), % inhibition of infected cells, HIV-1 KON replication in human PBMC” value is 20 µg/mL. For the same molecule, in assay [2], the “IC90 (µg/ml), % inhibition of infected cells, HIV-1 MN replication in human PBMC” value turned out to be 15 µg/mL. For the same molecule, in assay [3], the “IC50 (µg/ml), % inhibition of infected cells, HIV-1 89.6 (dual X4/R5) replication in human PBMC” value is less than 1.5 µg/mL and the “IC80 (µg/ml), % inhibition of infected cells, HIV-1 89.6 (dual X4/R5) replication in human PBMC” value worked out at 1.5 µg/mL.

B2: anti-CXCR4 Mab 515H7 (murine monoclonal antibody) (antibody, V domains shown)
VH: EVNLVESGGGLVQPGGSLRLSCATSGFTFTDNYMSWVRQPPGKALEWLGFIRNKANGYTTDYSASVRGRFTISRDNSQSILYLQMNALRAEDSATYYCARDVGSNYFDYWGQGTTLTVSS
VL: DIVMSQSPSSLAVSAGEKVTMSCKSSQSLFNSRTRKNYLAWYQQKPGQSPKLLIYWASARDSGVPARFTGSGSETYFTLTISRVQAEDLAVYYCMQSFNLRTFGGGTKLEIK
B2: the “% inhibition of SDF-1-induced BRET increase” value in assay [1] was 69%. For the same molecule, in assay [2], the “IC50 (µg/ml), % inhibition of infected cells, HIV-1 92UG024 replication in human PBMC” value was 0.5 µg/mL; the “IC50 (µg/ml), % inhibition of infected cells, HIV-1 KON replication in human PBMC” value was 1 µg/mL; the “IC50 (µg/ml), % inhibition of infected cells, HIV-1 MN replication in human PBMC” value is less than 1.5 µg/mL; the “IC80 (µg/ml), % inhibition of infected cells, HIV-1 92UG024 replication in human PBMC” value was 3 µg/mL. For the same molecule, in assay [2], the “IC80 (µg/ml), % inhibition of infected cells, HIV-1 KON replication in human PBMC” value turned out to be 8 µg/mL; the “IC80 (µg/ml), % inhibition of infected cells, HIV-1 MN replication in human PBMC” value is 1.5 µg/mL; the “IC90 (µg/ml), % inhibition of infected cells, HIV-1 92UG024 replication in human PBMC” value is 10 µg/mL; the “IC90 (µg/ml), % inhibition of infected cells, HIV-1 KON replication in human PBMC” value was 15 µg/mL. Further, the “IC90 (µg/ml), % inhibition of infected cells, HIV-1 MN replication in human PBMC” value in assay [2] is 10 µg/mL. In assay [3], the “IC50 (µg/ml), % inhibition of infected cells, HIV-1 89.6 (dual X4/R5) replication in human PBMC” value was less than 1.5 µg/mL and the “IC80 (µg/ml), % inhibition of infected cells, HIV-1 89.6 (dual X4/R5) replication in human PBMC” value was found to be 1.5 µg/mL. Further, in assay [4], the “IC50 (µg/ml), % inhibition of infected cells, GHOST CCR5 / R5 HIV-1 BaL virus” value is more than 75 µg/mL. Further, the “IC50 (µg/ml), % inhibition of infected cells, GHOST CXCR4 / X4 HIV-1 LAI virus” value in assay [5] amounted to 0.08 µg/mL.

B3: anti-CXCR4 Mab 301aE5 (murine monoclonal antibody) (antibody, V domains shown)
VH: QVQLKESGPGLVAPSQSLSITCTVSGFSLTDYGVYWVRQPPGKGLEWLGMIWGDGTTDYNSALKSRLSISKDNSKSQVFLKMNTLQTDDTARYYCARGRQFGFDYWGQGTTLTVSS
VL: DIVMSQSPSSLAVSAGEKVTMRCKSSQSLFNSRTRKNYLAWYQQKPGQSPKLLIFWASIRESGVPDRFTGSGSGTDFTLTISSVQAEDLAVYYCKQSYNLRTFGGGTKLEIK
With B3, the “% inhibition of SDF-1-induced BRET increase” value in assay [1] was determined as 69%. In assay [2], the “IC50 (µg/ml), % inhibition of infected cells, HIV-1 92UG024 replication in human PBMC” value is 50 µg/mL; the “IC50 (µg/ml), % inhibition of infected cells, HIV-1 KON replication in human PBMC” value worked out at 150 µg/mL; the “IC50 (µg/ml), % inhibition of infected cells, HIV-1 MN replication in human PBMC” value worked out at 1 µg/mL; the “IC80 (µg/ml), % inhibition of infected cells, HIV-1 92UG024 replication in human PBMC” value was determined as 150 µg/mL. For the same molecule, in assay [2], the “IC80 (µg/ml), % inhibition of infected cells, HIV-1 KON replication in human PBMC” value was more than 150 µg/mL; the “IC80 (µg/ml), % inhibition of infected cells, HIV-1 MN replication in human PBMC” value came to 150 µg/mL; the “IC90 (µg/ml), % inhibition of infected cells, HIV-1 92UG024 replication in human PBMC” value was more than 150 µg/mL; the “IC90 (µg/ml), % inhibition of infected cells, HIV-1 KON replication in human PBMC” value is more than 150 µg/mL. In addition, in assay [2], the “IC90 (µg/ml), % inhibition of infected cells, HIV-1 MN replication in human PBMC” value was more than 150 µg/mL. Further, in assay [3], the “IC50 (µg/ml), % inhibition of infected cells, HIV-1 89.6 (dual X4/R5) replication in human PBMC” value came to 20 µg/mL and the “IC80 (µg/ml), % inhibition of infected cells, HIV-1 89.6 (dual X4/R5) replication in human PBMC” value is 150 µg/mL.

B4: humanized Mab hz515H7 VH1 D76N VL2 (antibody, V domains shown)
VH: EVQLVESGGGLVQPGRSLRLSCTASGFTFTDNYMSWVRQAPGKGLEWVGFIRNKANGYTTEYAASVKGRFTISRDNSKSIAYLQMNSLKTEDTAVYYCARDVGSNYFDYWGQGTLVTVSS
VL: DIVMTQSPSSLAVSLGERATMSCKSSQSLFNSRTRKNYLAWYQQKPGQSPKLLIYWASARDSGVPARFTGSGSETYFTLTISRVQAEDLAVYYCMQSFNLRTFGQGTKVEIK
For the molecule B4, the “% inhibition of SDF-1-induced BRET increase” value in assay [1] is approximately 88%.

B5: humanized Mab hz515H7 VH1 D76N VL2.1 (antibody, V domains shown)
VH: EVQLVESGGGLVQPGRSLRLSCTASGFTFTDNYMSWVRQAPGKGLEWVGFIRNKANGYTTEYAASVKGRFTISRDNSKSIAYLQMNSLKTEDTAVYYCARDVGSNYFDYWGQGTLVTVSS
VL: DIVMTQSPDSLAVSLGERATMSCKSSQSLFNSRTRKNYLAWYQQKPGQPPKLLIYWASARDSGVPDRFSGSGSETYFTLTISRVQAEDLAVYYCMQSFNLRTFGQGTKVEIK
Turning to B5, the “% inhibition of SDF-1-induced BRET increase” value in assay [1] is approximately 65%.

B6: humanized Mab hz515H7 VH1 D76N VL2.2 (antibody, V domains shown)
VH: EVQLVESGGGLVQPGRSLRLSCTASGFTFTDNYMSWVRQAPGKGLEWVGFIRNKANGYTTEYAASVKGRFTISRDNSKSIAYLQMNSLKTEDTAVYYCARDVGSNYFDYWGQGTLVTVSS
VL: DIVMTQSPDSLAVSLGERATMSCKSSQSLFNSRTRKNYLAWYQQKPGQPPKLLIYWASARDSGVPDRFTGSGSETYFTLTISRVQAEDVAVYYCMQSFNLRTFGQGTKVEIK
Consider B6, for which the “% inhibition of SDF-1-induced BRET increase” value in assay [1] was approximately 33%.

B7: humanized Mab hz515H7 VH1 D76N VL2.3 (antibody, V domains shown)
VH: EVQLVESGGGLVQPGRSLRLSCTASGFTFTDNYMSWVRQAPGKGLEWVGFIRNKANGYTTEYAASVKGRFTISRDNSKSIAYLQMNSLKTEDTAVYYCARDVGSNYFDYWGQGTLVTVSS
VL: DIVMTQSPDSLAVSLGERATMSCKSSQSLFNSRTRKNYLAWYQQKPGQPPKLLIYWASARDSGVPDRFTGSGSETYFTLTISSLQAEDLAVYYCMQSFNLRTFGQGTKVEIK
B7: in assay [1], the “% inhibition of SDF-1-induced BRET increase” value was approximately 21%.
